One assay has as its target VEGF-A (UniProt P15692-4 27-191, limits assumed). Description: SPR (Biacore), DVD-Ig captured by anti-human Fc, antigen injected. On the procedure:
(§1) For example, approximately 9000 RU of goat anti-human Fc specific polyclonal antibody (Thermo Fisher Scientific Inc., Rockford, Ill.) diluted in 10 mM sodium acetate (pH 4.5) is directly immobilized across a CM5 research grade biosensor chip using a standard amine coupling kit according to manufacturer's instructions and procedures at 25 μg/ml. Unreacted moieties on the biosensor surface were blocked with ethanolamine. For kinetic analysis, rate equations derived from the 1:1 Langmuir binding model were fitted simultaneously to multiple antigen injections (using global fit analysis) with the use of Scrubber 2 (BioLogic Software), Biacore Biaevaluation 4.0.1 software or Biacore T100 Evaluation software. Purified antibodies or DVD-Ig molecules were diluted in running buffer for capture across goat anti-human Fc reaction surfaces. Antibodies or DVD-Ig molecules to be captured as a ligand (1 μg/ml) were injected over reaction matrices at a flow rate of 10 μl/minute. During the assay, all measurements were referenced against the capture surface alone (i.e., with no captured antibody or DVD-Ig molecule). […] The equilibrium dissociation constant KD (M) of the reaction between antibodies and the target antigen was then calculated from the kinetic rate constants by the following formula: KD=Koff/Kₒₙ. Binding was recorded as a function of time and kinetic rate constants were calculated.

In a further assay the target is PDGF-BB (UniProt P01127 82-190). Described as above. The method, then:
as §1

Chain of PDGF-BB (P01127 82-190): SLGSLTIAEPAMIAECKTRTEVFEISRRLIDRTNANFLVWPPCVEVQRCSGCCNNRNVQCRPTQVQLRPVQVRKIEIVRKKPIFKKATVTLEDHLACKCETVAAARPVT
Chain of VEGF-A (P15692 other isoform, or with tags, fused parts or gaps limits assumed): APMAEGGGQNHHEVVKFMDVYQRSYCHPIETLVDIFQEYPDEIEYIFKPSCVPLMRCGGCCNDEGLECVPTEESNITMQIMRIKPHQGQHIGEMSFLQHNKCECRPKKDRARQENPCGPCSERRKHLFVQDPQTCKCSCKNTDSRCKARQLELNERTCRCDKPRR

B1: 9E10.6_GS_3E2.1 (PR-1610563) (bispecific antibody, human IgG1, kappa, L234A L235A)
heavy: EVQLVQSGAEVKKPGSSVKVSCKASGYTFTNYGMYWVRQAPGQGLEWMGWIDTETGRPTYADDFKGRFTFTADKSTSTAYMELSSLRSEDTAVYYCARWSGDTTGIRGPWFAYWGQGTLVTVSSGGGGSGGGGSEVQLVQSGAEVKKPGSSVKVSCKASGYTFTESYMYWVKQAPGQGLELIGRIDPEDGSTDYVEKFKNKATLTADKSTSTAYMELSSLRSEDTAVYFCARFGARSYFYPMDAWGQGTTVTVSSASTKGPSVFPLAPSSKSTSGGTAALGCLVKDYFPEPVTVSWNSGALTSGVHTFPAVLQSSGLYSLSSVVTVPSSSLGTQTYICNVNHKPSNTKVDKKVEPKSCDKTHTCPPCPAPEAAGGPSVFLFPPKPKDTLMISRTPEVTCVVVDVSHEDPEVKFNWYVDGVEVHNAKTKPREEQYNSTYRVVSVLTVLHQDWLNGKEYKCKVSNKALPAPIEKTISKAKGQPREPQVYTLPPSREEMTKNQVSLTCLVKGFYPSDIAVEWESNGQPENNYKTTPPVLDSDGSFFLYSKLTVDKSRWQQGNVFSCSVMHEALHNAYTQKSLSLSPGK
light: DIRMTQSPSSLSASVGDRVTITCLASEDIYSDLAWYQQKPGKSPKLLIYNANGLQNGVPSRFSGSGSGTDYTLTISSLQPEDVATYFCQQYNYFPGTFGQGTKLEIKGGSGGGGSGGETVLTQSPATLSLSPGERATLSCRASESVSTLMHWYQQKPGQQPRLLIYGASNLESGVPARFSGSGSGTDFTLTISSLEPEDFAVYFCQQSWNDPWTFGGGTKVEIKRTVAAPSVFIFPPSDEQLKSGTASVVCLLNNFYPREAKVQWKVDNALQSGNSQESVTEQDSKDSTYSLSSTLTLSKADYEKHKVYACEVTHQGLSSPVTKSFNRGEC
notes: DVD-Ig: outer hBEW-9E10.6 (VEGF), inner hBFU-3E2.1 (PDGF), linkers GS-H10 / GS-L10(dR); Human IgG1 L234A, L235A, H435A with kappa light chain
Broadly, the Kd is the free concentration of one partner at which half of the binding sites on the other are occupied at equilibrium, for simple one-to-one binding. High values mean lower affinity, low ones higher affinity. The term kon denotes a measure of how fast the partners come together. Higher therefore signals fast association. In the assay with VEGF-A, B1 returned a Kd of 3 pM and a kon of 8.6e+06 M⁻¹ s⁻¹. In the assay with PDGF-BB, this molecule came in with a Kd of 36 pM and a kon of 5.8e+06 M⁻¹ s⁻¹.

B2: 1E3.4_GS_3E2.1 (PR-1612495) (bispecific antibody, human IgG1, kappa, L234A L235A)
heavy: EIQLVQSGSELKKPGASVKVSCKASGYPFTNSGMYWVKQAPGQGLEYMGWINTEAGKPTYADDFKGRFVFSLDTSVSTAYLQISSLKAEDTAVYFCARWGYISDNSYGWFDYWGQGTLVTVSSGGGGSGGGGSEVQLVQSGAEVKKPGSSVKVSCKASGYTFTESYMYWVKQAPGQGLELIGRIDPEDGSTDYVEKFKNKATLTADKSTSTAYMELSSLRSEDTAVYFCARFGARSYFYPMDAWGQGTTVTVSSASTKGPSVFPLAPSSKSTSGGTAALGCLVKDYFPEPVTVSWNSGALTSGVHTFPAVLQSSGLYSLSSVVTVPSSSLGTQTYICNVNHKPSNTKVDKKVEPKSCDKTHTCPPCPAPEAAGGPSVFLFPPKPKDTLMISRTPEVTCVVVDVSHEDPEVKFNWYVDGVEVHNAKTKPREEQYNSTYRVVSVLTVLHQDWLNGKEYKCKVSNKALPAPIEKTISKAKGQPREPQVYTLPPSREEMTKNQVSLTCLVKGFYPSDIAVEWESNGQPENNYKTTPPVLDSDGSFFLYSKLTVDKSRWQQGNVFSCSVMHEALHNAYTQKSLSLSPGK
light: ATQLTQSPSSLSASVGDRVTISCRASEGVYSYMHWYQQKPGKQPKLLIYKASNLASGVPSRFSGSGSGTDFTLTISSLQPEDFATYFCHQNWNDPLTFGQGTKLEIKGGSGGGGSGGETVLTQSPATLSLSPGERATLSCRASESVSTLMHWYQQKPGQQPRLLIYGASNLESGVPARFSGSGSGTDFTLTISSLEPEDFAVYFCQQSWNDPWTFGGGTKVEIKRTVAAPSVFIFPPSDEQLKSGTASVVCLLNNFYPREAKVQWKVDNALQSGNSQESVTEQDSKDSTYSLSSTLTLSKADYEKHKVYACEVTHQGLSSPVTKSFNRGEC
notes: DVD-Ig: outer hBEW-1E3.4 (VEGF), inner hBFU-3E2.1 (PDGF), linkers GS-H10 / GS-L10(dR); Human IgG1 L234A, L235A, H435A with kappa light chain
Regarding B2, the Kd with VEGF-A was 9.8 pM; in the assay with PDGF-BB, 12 pM. Moreover, the on-rate constant (kon) in the assay with VEGF-A was found to be 5.3e+06 M⁻¹ s⁻¹; with PDGF-BB, 4.5e+07 M⁻¹ s⁻¹.

B3: 1B10.1_GS_CL-33675 (PR-1611292) (bispecific antibody, human IgG1, kappa, L234A L235A)
heavy: EVQLVESGGGLVQPGGSLRLSCAASGFSFSKYDMAWFRQAPGKGLEWVASITTSGVGTYYRDSVKGRFTVSRDNAKSTLYLQMNSLRAEDTAVYYCARGYGAMDAWGQGTTVTVSSGGGGSGGGGSEVTLRESGPALVKPTQTLTLTCTFSGFSLSTYGMGVGWIRQPPGKALEWLANIWWDDDKYYNPSLKNRLTISKDTSKNQVVLTMTNMDPVDTATYYCARIESSGPKYSFDYWGQGTMVTVSSASTKGPSVFPLAPSSKSTSGGTAALGCLVKDYFPEPVTVSWNSGALTSGVHTFPAVLQSSGLYSLSSVVTVPSSSLGTQTYICNVNHKPSNTKVDKKVEPKSCDKTHTCPPCPAPEAAGGPSVFLFPPKPKDTLMISRTPEVTCVVVDVSHEDPEVKFNWYVDGVEVHNAKTKPREEQYNSTYRVVSVLTVLHQDWLNGKEYKCKVSNKALPAPIEKTISKAKGQPREPQVYTLPPSREEMTKNQVSLTCLVKGFYPSDIAVEWESNGQPENNYKTTPPVLDSDGSFFLYSKLTVDKSRWQQGNVFSCSVMHEALHNAYTQKSLSLSPGK
light: DIQMTQSPSSLSASVGDRVTITCKASQDIDDYLSWYQQKPGKSPKLVIYAATRLADGVPSRFSGSGSGTDYTLTISSLQPEDFATYYCLQSSSTPWTFGGGTKVEIKGGSGGGGSGGEIVLTQSPGTLSLSPGERATLSCRASSGSIWYSFVSWYQQKPGQAPRLLIYADDQRASGIPDRFSGSGSGTDFTLTISRLEPEDFAVYYCQSYGINIDVVFGGGTKVEIKRTVAAPSVFIFPPSDEQLKSGTASVVCLLNNFYPREAKVQWKVDNALQSGNSQESVTEQDSKDSTYSLSSTLTLSKADYEKHKVYACEVTHQGLSSPVTKSFNRGEC
notes: DVD-Ig: outer hBEW-1B10.1 (VEGF), inner CL-33675 (PDGF), linkers GS-H10 / GS-L10(dR); Human IgG1 L234A, L235A, H435A with kappa light chain
Turning to B3, in the assay with VEGF-A, the affinity, expressed as Kd, was 62 pM and the kon is 2.1e+06 M⁻¹ s⁻¹. In the assay with PDGF-BB, this molecule had a Kd of 0.54 pM and a kon of 2.2e+07 M⁻¹ s⁻¹.

B4: 9E10.6_GS_CL-33675 (PR-1612492) (bispecific antibody, human IgG1, kappa, L234A L235A)
heavy: EVQLVQSGAEVKKPGSSVKVSCKASGYTFTNYGMYWVRQAPGQGLEWMGWIDTETGRPTYADDFKGRFTFTADKSTSTAYMELSSLRSEDTAVYYCARWSGDTTGIRGPWFAYWGQGTLVTVSSGGGGSGGGGSEVTLRESGPALVKPTQTLTLTCTFSGFSLSTYGMGVGWIRQPPGKALEWLANIWWDDDKYYNPSLKNRLTISKDTSKNQVVLTMTNMDPVDTATYYCARIESSGPKYSFDYWGQGTMVTVSSASTKGPSVFPLAPSSKSTSGGTAALGCLVKDYFPEPVTVSWNSGALTSGVHTFPAVLQSSGLYSLSSVVTVPSSSLGTQTYICNVNHKPSNTKVDKKVEPKSCDKTHTCPPCPAPEAAGGPSVFLFPPKPKDTLMISRTPEVTCVVVDVSHEDPEVKFNWYVDGVEVHNAKTKPREEQYNSTYRVVSVLTVLHQDWLNGKEYKCKVSNKALPAPIEKTISKAKGQPREPQVYTLPPSREEMTKNQVSLTCLVKGFYPSDIAVEWESNGQPENNYKTTPPVLDSDGSFFLYSKLTVDKSRWQQGNVFSCSVMHEALHNAYTQKSLSLSPGK
light: DIRMTQSPSSLSASVGDRVTITCLASEDIYSDLAWYQQKPGKSPKLLIYNANGLQNGVPSRFSGSGSGTDYTLTISSLQPEDVATYFCQQYNYFPGTFGQGTKLEIKGGSGGGGSGGEIVLTQSPGTLSLSPGERATLSCRASSGSIWYSFVSWYQQKPGQAPRLLIYADDQRASGIPDRFSGSGSGTDFTLTISRLEPEDFAVYYCQSYGINIDVVFGGGTKVEIKRTVAAPSVFIFPPSDEQLKSGTASVVCLLNNFYPREAKVQWKVDNALQSGNSQESVTEQDSKDSTYSLSSTLTLSKADYEKHKVYACEVTHQGLSSPVTKSFNRGEC
notes: DVD-Ig: outer hBEW-9E10.6 (VEGF), inner CL-33675 (PDGF), linkers GS-H10 / GS-L10(dR); Human IgG1 L234A, L235A, H435A with kappa light chain
Take B4: in the assay with VEGF-A, the Kd worked out at 2 pM and the kon is 1.1e+07 M⁻¹ s⁻¹. Also, in the assay with PDGF-BB, binding was characterised by a dissociation constant (Kd) of 1.2 pM and the kon was determined as 2.4e+07 M⁻¹ s⁻¹.

(Values after patent US20170015742A1 (published 2017).)
